Measurements: the DeepSol protein solubility set

Experiment: soluble on expression in E. coli; label from the status in PepcDB or PDB records

Sequence | soluble on expression in E. coli
MGSDKIHHHHHHVLNFDYDLQSVQETRNLARQAKQAQTELAQFNSEQIDKIIRNMVKVAEENAVALAKLAVEETGFGKVEDKVFKNRFASTELYQFIKPMQTIGVIKEDKINKVMEIAEPVGLLMGIVPSTNPTSTTIYKSLIAIKARNGIVFSPHPSALKCTLEAAKLMNDAAVAAGAPANIIGCISKPSMNATNELMKCDEVAMIIATGGSAMVKAAYSAGKPALGVGPGNVPAYIERTADIPKAVRNIIASKTFDNGTICASEQSVVVEECIRNQVMEEFKRQGGYFMTPEETEQVGRKLFNRGHAMNAKMVGRSAADIAAGAGISIPPGTKVLLGEQQGVGEQYPLSYEKLTTVLAFYTVKDWHEACDLCMKLLNNGGVGHSLSIHTENPEMAIKFAEKPVFRILVNTASTHGGVGVSTGLAPAFTLGCGTWGGSATSDNVTPMHLINIKRVAYGIKDVTENGNSSYATGDAQQGGSGGTVSEDRIQALVNEVMSLLKQRGDC | not soluble
MESTGSVGEAPGGPRVLVVGGGIAGLGAAQRLCGHSAFPHLRVLEATARAGGRIRSERCFGGVVEVGAHWIHGPSRGNPVFQLAAEYGLLGEKELSQENQLVETGGHVGLPSVSYASSGASVSLQLVAEMATLFYGLIDQTREFLHAAETPVPSVGEYLKKEIGQHVAGWTEDEETRKLKLAVLNSFFNLECCVSGTHSMDLVALAPFGEYTVLPGLDCTFSKGYQGLTNCMMAALPEDTVVFEKPVKTIHWNGSFQEAAFPGETFPVSVECEDGDRFPAHHVIVTVPLGFLREHLDTFFDPPLPAEKAEAIRKIGFGTNNKIFLEFEEPFWEPDCQLIQLVWEDTSPLEDAAPELQDAWFRKLIGFVVLPAFASVHVLCGFIAGLESEFMETLSDEEVLLCLTQVLRRVTGNPRLPAPKSVLRSRWHSAPYTRGSYSYVAVGSTGGDLDLLAQPLPADGAGAQLQILFAGEATHRTFYSTTHGALLSGWREADRLLSLWAPQVQQPRPRL | not soluble
DCEKEGEVQWFALPVVLVSGCKKERAIEMKLPTEALFACLQNYPHLRALTQETQWLPYLVHSSDLSAVAPDEWWRAKQNTEAAAQHLRRFAPRPLLLPEGQSVHVVYALGFGSGKVQTALGQNLLQAGLPLMQVWQENLASEGVTLFANPLSPDSPVRALSDGSHTRQRMAMDVFAANAIRAVRMQSPR | not soluble
MAIRKLLLLLKPIDPYPFLQTEGASLIKNPQVLINYLPQMRLISILNPDHVLQYLESRCKVHKNAIKFCQEILSKKPVEWKPISRNDLSHPIRDVDMVITVGGDGTLLHASHFIDDSVPVLGVNSDPTQAHEVEELSDQFDASRSTGHLCAATVENFEQVLDDILFGRVVPAKVSRISLKLNSETLLSHALNDILIAQPCPAAVSRFSFKIKNKDGASSPKTVNCRSSGLRICTAAGSTAAMQSAGGFVMPMLSRDLQFMVREPISPGSTASLMHSTFKPDQFMDVNWYSDHGTIYIDGCQVQHSVQLGDTIEISSDAPVLNVFLSHGISQIRSRY | soluble
MEELRFNSVFDIIGPVMIGPSSSHTAGAARIGKVVRSIFGQQPDSVDIYLYESFAKTYRGHGTDIALVGGLLGMEPDDEQLSNSLEIAYEQGMEVCFIPKSEKADHPNSVKIVVSSGDRKLSVTGISIGGGNIQISELNGFKLSLSMGTPTFIVVHQDVPGMIAKVTNILSASDINISTMTVTRESKGEKAIMIIEVDQAEVGDIVMQLAEIPHIYSVNYFD | not soluble
MGSDKIHHHHHHSHKYTAITPGVEWLDTNNEKINAHGGGILYHEGIYYWYGECKSDSTYWNPNVPGWECYRTEAGGVNCYSSKDLLNWKYEGLVLQPEISDTQSDLHPSKVLERPKVIYNDKTKKFVMWLHVDSDDYNKAAAGVAVSDSPTGVFTYLGSMHPNGQISRDMTLFKDDDGKAYHIYSSEQNSTLYISLLSDDYLKPSGTFTRNFAGKFREAPAVFKHNGLYYVISSGCTGWSPNEAEYAVATQILGPWTVKGNPCVGKDADKTFYGQSTHVLPIQGKKDAYIAMFDKWNKTDLIHSTYIWLPIQFREDGSMAIQWLDSWSPDTYEF | not soluble
MSLDTEAVLAAVEDAPVRETLDSMVASLKSHEDSEFAGAIATFTGRVRERDDPDDTPTQHLEFERYDTVAEQRMATIREQLCERDGVYDVRMHHRTGVVPAGDDVVHVVVLAGHRGDAFRAVSDGIDRLKDEVPLFKKEVTVDDAFWRHDEGHHHHHH | soluble
MLTALKTDTGKIRQHNEDDAGIFKGKDEFILAVVADGMGGHLAGDVASKMAVKAMGEKWNEAETIPTAPSECEKWLIEQILSVNSKIYDHAQAHEECQGMGTTIVCALFTGKTVSVAHIGDSRCYLLQDDDFVQVTEDHSLVNELVRTGEISREDAEHHPRKNVLTKALGTDQLVSIDTRSFDIEPGDKLLLCSDGLTNKVEGTELKDILQSDSAPQEKVNLLVDKANQNGGEDNITAVLLELALQVEEGEDQC | soluble
MEGGGAKDGSAAAAQTRGSGDDGSHKPLPPCCLKAKAAAAESEAKCHATVVSGWFTEPRSHSGKTSKVQYFNNPMWPGEAHSLKVENILYQGKSPYQEILVFESSTYGNVLVLDGIVQLTEKDECAYQEMVTHLPLCSIPSPKSVLVVGGGDGGVLREIARHASVENIDICEIDQLVIDVCKDFFPQLSVGFKDPRVQLHVGDAVDFLRNAPEGKYDAIIVDSSDPIGPAQELVEKPFFQTIARALKPGGVLCNQAESMWLHTHLIQDMLSICRETFKGAVHYAWTSVPTYPSGVIGFLLCAKEGPAVNFLSPVNPIEKLEGAMEAGREIRFYNSEVHRAAFVLPTFVRRELESHNTCAEKDKSETKPVAKPKKMKIMPNSAIPTAS | not soluble
CLEDILSATKMVINLCLPQFRPRIHCNKISADGYEVENLISEDLTKRSHGFRTEYFIKPPVYVTVSFPFNVEICRINIDLTAGGGQNVTGLEMYTSASSSRVSWNTPQCRTLGPAEPSVPDKEAFTLVGKVLLKNQSQVVFSHRGFKARPPFGAMEATLPSPAVVAQELWNKGALSLSHVAHLRICITHVTGGGIPCIKRLEVWGQPAKTCSQEVIDSILLVTSENLPQDVALQAPALPMESDCDPGDQPESQQAPSSLQKLAEIIQDVPEEFLDPITLEIMPCPMLLPSGKVIDQSTLEKCNRSEATWGRVPSDPFTGVAFTPHSQPLPHPSLKARIDHFLLQHSIPGCHLLGRAQTALAVIPSSIVLPSQKRKIEQAEHVPDSNFGVNASCFSATSPLVLPTTSEHTAKKMKATNEPSLTHMDCSTGPLSHEQKLSQSLEIALASTLGSMPSFTARLTRGQLQHLGTRGSNTSWRPGTGSEQPGSILGPECASCKRVFSPYFKKEPVYQLPCGHLLCRPCLGEKQRSLPMTCTACQRPVASQDVLRVHF | soluble
MGSDKIHHHHHHMLFYLPVTGQNTAVYPDQFGAYFNNMHLVTPSYFPKDVKVNLSLSYKSRTGALNKISTFNVAFTRVFNHTKPTNHLIRIYFYNEKDGPYIHRPRAYINYGYKIALSKQVNIAAGAAFGFAQTAFTAPSSTANGNSISPDASIGLSLQVKNFEAGFSVCQLLNSEVNPVVAPIIYRRYYNTYLSYHADLSPFIKLKSGMLWRALPTYDDDLNIYSMLEYKETISFGGCYRYNKNFSFVVSTNIHIGKESILLSFVYNTPFFTKLPAWTDSVELNGGYNFY | not soluble
MSNMEPPPPMFPRSRIYHSYYSEEKTFSAPSANSQQGTQLPSKVYNKGLKDNDIEGLLSSLSIDELEDLNNDFDPDNSMLPPSQRCRDQTDKEPTGPYKRDNLLKFLEDKAKTEKDWEDVCPYTPGQKRGKVYDSDSGRNSEEPENGKMEMPIEIDLDDDEEELECALVTAPEKDLVDLAGILGMHNVLNQPQYYNALKGKTQDESTGTTFNGIMQSYVPRIVPDEPDNDTDVESCINRLREDDTDLKEVNINNMKRVSKERIRSLIEAACNSKHIEKFSLANTAISDSEARGLIELIETSPSLRVLNVESNFLTPELLARLLRSTLVTQSIVEFKADNQRQSVLGNQVEMDMMMAIEENESLLRVGISFASMEARHRVSEALERNYERVRLRRLGKDPNV | soluble
MDKPILKDSMKLFEALGTIKSRSMFGGFGLFADETMFALVVNNQLHIRADQQTSSDFETQGLKPYVYKKRGFPVVTKYYAISSELWESSDRLIEVAKKSLENAKLEKEQQASTKPNRLKDLPNLRLATERMLKKAGIDSVAQLEEEGALSAYKAIRDTHSTTVSLELLWALEGAINGTHWSVVPQSRREELMNGLS | soluble
MSLEKQKLIKLIDVAAGRKKADLVLKNAKIVDVFQAKILTGDIAISDGYIAGIGGSYQGVVECNYTGKYVAPGFIEAHIHIESSYVSPEEFSRVFIPRGTTTILADPHEIVNVAGLKGLDYMVNAAKNAKMDIRYMMPPCVPATNFETSGADLYADDMEDALKTGEVDGLAELMNFPGVINADDKMIDEILMAKKYGARIDGHAPQVVGKDLNAYIAAGPANDHECSTLEEAEERLARGMYLLLREGSVTQDLRKLLPIVNTANSRRCLLSGDDVQAKTAINKGHLDNSIRICIDEGLNPITAIQMATLNPAEYCGLNDRGAIAPGRRADMVVFESLEDFAVEETYILGEKLSQGNEYLGEVNYYPIDSVESSMHVKDFTREKLQLHLNSDKVRAIGVVPGEVLTTEEHVTVKRDGDGNFVYNDQEDVTKIVVVERHHNTGNVNVNLLSGYGIKAGAIAISIGHDSHNIIATGTNDDDIFMAVNELIKQEGGAVVVKDEKVISRMELKIAGLMCNLPAEKMIAQQDALDEAVHEELGVPDNVNPVMTLSFMPLAVIPKLKITDKGLVDVEKNAFVSNELDEGHHHHHH | soluble
MNERFGELNFVTPDACSLRRMANKYYPYTMRQSFPLWTSISKEVQIVEGRELPVMQDLADRHPEINKMYGSAEELWENLKTFIDFQGNLQYFEVNPCVSYNHRFFIHKDISSDKKFLYKNDIFLSIQDNLIVRKPVLRNRVSLFMLAYFLKYHEKKLSTSCEFVEYVEKDFDNLINELNDFLLDFIKKPKPVANDANFDWKKVFTRLRNMLPEPMTEEEMSPLADVLKRYFETYPRAQAVGVLNMIEQFCKMMIPRLQKIMDKRPEWFLPNRTKNAKPVLRYFIDGKKPFVMVPEYEIATKEKFQYTDSSFMATGIDTIDLSDISLVASSNGGSLSDFYCIRFNIERTKHTARPIRTTTGTFCKLSADVLLEHLRDLFFGSRVFQSPTRSMFNGYVISMNEIFNSNAQGIYFLEESIIEFVEKISSGLFGTPESKTIRDVPPKGFTVGDVHSELKYLGLLEFFPNISNYAEIAYKKVVAEKKMKILRTCDMFDAVEICMMLAVFNGYPKLAQFLHSQHACHRIQGLQCKKCELEKKHPMMNSWLYPYMEVEEDEKVDSTSSDDEEKRTSTSELAGNGRKSEQKKLAVKDPEPSTMEKETRKSKCCESTKDQLKAFQEQVEALKKEMKELETAMSKNLKN | not soluble
SEKYNSLSDFLKEFYIPTYVLSAETEEEEEEESRPTPASPVLVFINSKSGGQLGGELILTYRSLLNHNQVFDLDQETPDKVLRRIYLNLERLKDDDFARQIREKLKIIVAGGDGTAGWLLGVVCDLKLSHPPPIATVPLGTGNNLPFAFGWGKKNPGTDRTAVESFLEQVLKAKVMKIDNWHILMRMKTPKEGGSCDPVAPLELPHSLHAFHRVSPTDELNKEGCHTFRGGFWNYFSLGMDAQISYAFHSERKLHPEKFKNQLVNQSTYVKLGCTQGWFCASLFHPASRNIAQLAKVKIATRNGQWQDLHIPHSIRSIVCLNLPSFSGGLNPWGTPNPRKQRDRGLTPPFVDDGLIEVVGFRNAWHGLVLLAPNGHGTRLAQANRIRFEFHKGATDHTFMRMDGEPWKQPLPLDDETVMVEISHLGQVNMLATHDCRSRSVFDPSTPRHQDGAEDYDDNEDDSVAEGEEFRKFGAADTFKIPDEVDISQLS | soluble
MSLQLLLVDDEEDANEELAELLEGEGFCCFTASSVKMALHQLTAHPDIALVITDLRMPEESGIQLIRHLREHTSRQHLPVIVTSGHADMDDVSDLLRLHVLDLFRKPIYHVRLLETLNNLFPEPKIFQEGHHHHHH | soluble
